In the Human Domainome abundance scans (Beltran et al. 2025) one finds abundance fitness data, which are given here for 50 variants.

± gives the uncertainty stated by the source.

To fix the notation:
B1: Metastasis-associated protein MTA3, residues 265 to 317; numbered along this chain, Q9BTC8 (parent)
chain: RDEMEEWSASEASLFEEALEKYGKDFNDIRQDFLPWKSLTSIIEYYYMWKTTD

The data set covers variants of B1. In words: abundance fitness (aPCA) (normalised: wild type 0, dead -1); higher = more abundant; growth selection in yeast, the domain comes from the species named. Conditions: Homo sapiens.
Consider RDEMEEWSASEASLFEELLEKYGKDFNDIRQDFLPWKSLTSIIEYYYMWKTTD, for which the abundance fitness is -0.627 ± 0.083.

Regarding RDEMEEWSASEASLFEEVLEKYGKDFNDIRQDFLPWKSLTSIIEYYYMWKTTD, the abundance fitness was -0.443 ± 0.15.

Turning to RDEMEEWSASEASLFEEDLEKYGKDFNDIRQDFLPWKSLTSIIEYYYMWKTTD, the abundance fitness is -1.2 ± 0.39.

Regarding RDEMEEWSASEASLFEERLEKYGKDFNDIRQDFLPWKSLTSIIEYYYMWKTTD, the abundance fitness was -0.913 ± 0.11.

RDEMEEWSASEASLFEEALDKYGKDFNDIRQDFLPWKSLTSIIEYYYMWKTTD: the abundance fitness was -0.283 ± 0.12.

For the variant RDEMEEWSASEASLFEEALIKYGKDFNDIRQDFLPWKSLTSIIEYYYMWKTTD, the abundance fitness is -0.267 ± 0.091.

For the variant RDEMEEWSASEASLFEEALEKYGKDFADIRQDFLPWKSLTSIIEYYYMWKTTD, the abundance fitness is -0.015 ± 0.22.

Take RDEMEEWSASEASLFEEALEKYGKDFQDIRQDFLPWKSLTSIIEYYYMWKTTD: the abundance fitness is -0.075 ± 0.31.

In the case of RAEMEEWSASEASLFEEALEKYGKDFNDIRQDFLPWKSLTSIIEYYYMWKTTD, the abundance fitness came out at 0.033 ± 0.15.

RDEMEEWSASEASLFEEALEKYGKDFNDIRQDFLPWKQLTSIIEYYYMWKTTD: the abundance fitness was -0.393 ± 0.14.

RDEMEEWSASEASLFEEALEKYGKDFNDIRQDFLPWKSLTPIIEYYYMWKTTD: the abundance fitness is 0.242 ± 0.14.

As to RDEMEEWSASEPSLFEEALEKYGKDFNDIRQDFLPWKSLTSIIEYYYMWKTTD, the abundance fitness was -0.805 ± 0.15.

Take RDEMEEWSASEMSLFEEALEKYGKDFNDIRQDFLPWKSLTSIIEYYYMWKTTD: the abundance fitness was found to be 0.068 ± 0.12.

Take RDEMEEWSASELSLFEEALEKYGKDFNDIRQDFLPWKSLTSIIEYYYMWKTTD: the abundance fitness is -0.473 ± 0.069.

For RDEMEEWSASEASLFEEALEKYGKDFNDIRQDFLPWKSCTSIIEYYYMWKTTD, the abundance fitness is -0.733 ± 0.17.

As to RDEMEEWSASEASLFEEALEKYGKDFNDIRQDFLPWKSVTSIIEYYYMWKTTD, the abundance fitness was -0.327 ± 0.16.

With RDEMEEWSASEASLFEEALEKYGKDFNDIRQDFLPWKSLTSIIEYYYMWKQTD, the abundance fitness was found to be 0.433 ± 0.14.

Regarding RDEMEEWCASEASLFEEALEKYGKDFNDIRQDFLPWKSLTSIIEYYYMWKTTD, the abundance fitness was -0.9 ± 0.18.

Take RDEMEEWPASEASLFEEALEKYGKDFNDIRQDFLPWKSLTSIIEYYYMWKTTD: the abundance fitness was -0.884 ± 0.14.

For the variant RDEMEKWSASEASLFEEALEKYGKDFNDIRQDFLPWKSLTSIIEYYYMWKTTD, the abundance fitness is 0.096 ± 0.28.

With RDEMERWSASEASLFEEALEKYGKDFNDIRQDFLPWKSLTSIIEYYYMWKTTD, the abundance fitness is -0.226 ± 0.13.

In the case of RDEMEEWSASEASLFEEALEKYGKDFNDIRQDFLPWKSLTSIREYYYMWKTTD, the abundance fitness came out at 0.162 ± 0.065.

For the variant RDEMEEWSASEASGFEEALEKYGKDFNDIRQDFLPWKSLTSIIEYYYMWKTTD, the abundance fitness is -0.866 ± 0.12.

RDEMEEWSASEASLFEEALEKYGKDFNDIRQDFLPWKSLTSIIEYYYMHKTTD: the abundance fitness worked out at 0.122 ± 0.12.

With RDEMEEWSASEASLFEEALEKYGKDFNDIRQDFLPWKSLTSIIEYYYMAKTTD, the abundance fitness was -0.088 ± 0.12.

As for RDEMEEWSASEASLFEEALEKYGKDFNDIRQDFLPWKSLTSIIEYYYMQKTTD, the abundance fitness is 0.349 ± 0.11.

As for RDPMEEWSASEASLFEEALEKYGKDFNDIRQDFLPWKSLTSIIEYYYMWKTTD, the abundance fitness was -0.466 ± 0.47.

RDEMEEWSASEASLFEEALEKYAKDFNDIRQDFLPWKSLTSIIEYYYMWKTTD: the abundance fitness is -0.536 ± 0.12.

On to RDEMEEWSASEASLFEEALEKYGKDFNDIRQDFLPWKSLTSIIEYYWMWKTTD, for which the abundance fitness is -0.174 ± 0.15.

As for RDEMEEWSASEASLFEEANEKYGKDFNDIRQDFLPWKSLTSIIEYYYMWKTTD, the abundance fitness was -0.785 ± 0.18.

With RDEMEEWSASSASLFEEALEKYGKDFNDIRQDFLPWKSLTSIIEYYYMWKTTD, the abundance fitness is -0.883 ± 0.11.

As to RDEMEEWSASMASLFEEALEKYGKDFNDIRQDFLPWKSLTSIIEYYYMWKTTD, the abundance fitness turned out to be 0.052 ± 0.11.

Turning to RDEMEEWSASNASLFEEALEKYGKDFNDIRQDFLPWKSLTSIIEYYYMWKTTD, the abundance fitness was -0.91 ± 0.2.

In the case of RDEHEEWSASEASLFEEALEKYGKDFNDIRQDFLPWKSLTSIIEYYYMWKTTD, the abundance fitness was determined as 0.156 ± 0.27.

In the case of RDEMWEWSASEASLFEEALEKYGKDFNDIRQDFLPWKSLTSIIEYYYMWKTTD, the abundance fitness was -0.639 ± 0.24.

As for RDEMEEWSASEASLFEEALEKYGKDFNNIRQDFLPWKSLTSIIEYYYMWKTTD, the abundance fitness is -0.112 ± 0.33.

As for RDEMEEWSASEASLFEEALEKYGKDFNRIRQDFLPWKSLTSIIEYYYMWKTTD, the abundance fitness came out at 0.549 ± 0.14.

As to RDEMEEWSASEASLFEEALEKYGKDFNLIRQDFLPWKSLTSIIEYYYMWKTTD, the abundance fitness came to 0.978 ± 0.099.

With RDEMEEWSASEASLFEEALEKYGKDFNDIRQDFLPWKSLTSIIWYYYMWKTTD, the abundance fitness was -1.05 ± 0.5.

Consider RDEMEEWSASEASLFEEALEKYGKDFNDIRQDFLPWKSLHSIIEYYYMWKTTD, for which the abundance fitness was -0.138 ± 0.097.

For the variant RDEMEEWSAGEASLFEEALEKYGKDFNDIRQDFLPWKSLTSIIEYYYMWKTTD, the abundance fitness is -0.275 ± 0.092.

Take RDEMEEWSASEASLFEEALEKYGHDFNDIRQDFLPWKSLTSIIEYYYMWKTTD: the abundance fitness was -0.362 ± 0.08.

Take RDEMEEWSASEASLFENALEKYGKDFNDIRQDFLPWKSLTSIIEYYYMWKTTD: the abundance fitness was -0.668 ± 0.12.

RDEMEEWSASEASLFEDALEKYGKDFNDIRQDFLPWKSLTSIIEYYYMWKTTD: the abundance fitness was -0.477 ± 0.28.

Take RDEMEEWSASEASLLEEALEKYGKDFNDIRQDFLPWKSLTSIIEYYYMWKTTD: the abundance fitness is -0.697 ± 0.12.

Regarding RDEMEEWSASEASLQEEALEKYGKDFNDIRQDFLPWKSLTSIIEYYYMWKTTD, the abundance fitness was -0.217 ± 0.17.

Take RDEMEEWSASEASLSEEALEKYGKDFNDIRQDFLPWKSLTSIIEYYYMWKTTD: the abundance fitness is -0.543 ± 0.089.

RDEMEEWSASEAMLFEEALEKYGKDFNDIRQDFLPWKSLTSIIEYYYMWKTTD: the abundance fitness worked out at 0.128 ± 0.093.

Turning to RDEMEEWSASEASLFEEALEKYGKDFNDIRQDFLPWKSLTSIIEYYYMWKTPD, the abundance fitness was -0.055 ± 0.078.

For the variant RDEMEEWSASEASLFEEALEKYGKDFNDIRQDFLPWKSLTSIIEYYYMWKTWD, the abundance fitness is -0.521 ± 0.23.
